{"source": "patent US7385023B1", "about": "“Cancer immunotherapy and diagnosis using cytochrome P450 1B1” (Trustees of Boston University, priority 2000, dated 2008)", "molecules": {"B1": {"name": "CYP246 peptide from cytochrome P450 1B1 (WLQYFPNPV) (peptide)", "peptide": "WLQYFPNPV"}, "B2": {"name": "CYP239-139 heteroclitic peptide (YLYDVMPWV) (peptide)", "peptide": "YLYDVMPWV", "notes": "Designed variant of CYP239 changed at positions 1, 3 and 9"}, "B3": {"name": "CYP239-19 heteroclitic peptide (YLVDVMPWV) (peptide)", "peptide": "YLVDVMPWV", "notes": "Designed variant of CYP239 changed at positions 1 and 9"}, "B4": {"name": "CYP239 peptide from cytochrome P450 1B1 (SLVDVMPWL) (peptide)", "peptide": "SLVDVMPWL", "notes": "Synthetic peptide bought from Sigma Genosys"}, "B5": {"name": "CYP190 peptide from cytochrome P450 1B1 (FLDPRPLTV) (peptide)", "peptide": "FLDPRPLTV"}}, "key": {"[1]": {"test_system": "T2 cells", "experiment": "51Cr release cytotoxicity assay, peptide-pulsed T2 cells", "assay_type": "cell-based", "conditions": "for recognition by CYP239-specific CTL of target cells pulsed with heteroclitic peptide: CTL generated against wild type CYP239", "quoted_text": "To assess cytolytic function CTL lines were used after at least four antigenic stimulations in standard ^51Cr release assays as previously described (Vonderheide et al., Immunity 10:673-679, 1999)."}, "[2]": {"test_system": "HLA-A2+ primary ALL cells", "experiment": "51Cr release cytotoxicity assay, primary ALL", "assay_type": "cell-based, human", "description": "Peptides were pulsed onto TAP-deficient T2 cells, and the maximum binding and the stability over time were assessed by flow cytometry. […] Additional experiments were carried out to characterize these peptides, in particular, CYP190."}, "[3]": {"test_system": "CD8+ T cells of HLA-A2+ cancer patients", "experiment": "Ex vivo generation of peptide-specific CTL from cancer patients", "assay_type": "cell-based, human", "text": "Similar to experiments described for healthy donors, we next attempted to generate CYP1B1-specific CTL from peripheral blood of cancer patients. […] Due to lower numbers of PBMC available, CYP246-specific CTL cultures were only initiated in patients 3 and 4. […] Because autologous tumor cells were not available from these patients, we tested the same FL samples described above as primary tumor targets. CYP239-specific CTL from patient 1 lysed both HLA-A2^+ FL samples but not the HLA-A2^− (18% vs. 0% at an E:T ration of 30:1)."}, "[4]": {"molecular_target": "HLA-A*0201 (Homo sapiens, UniProt P04439, D140Y/D185E/D98H/E176V/E277Q/G131W/G231S/I119V/I121R/I166T/I218V/L300P/L318F/N151K/N90K/P208A/P217A/Q86G/Q94H/R138H/R169H/T345S)", "experiment": "HLA-A2/peptide complex stability on TAP-deficient T2 cells", "assay_type": "binding", "experimental": "In particular, T2 cells were incubated with peptide in serum-free medium for up to 18 hours, harvested, washed, and subsequently stained with FITC-labeled anti-HLA-A2 mAb BB7.2 (maximum peptide binding). Increase in fluorescence intensity was determined as a function of peptide binding. For analysis of complex stability, T2 cells were cultured in serum-free media for an additional 2, 4, 6, or 24 hours, and subsequently analyzed for HLA-A2 expression by flow cytometry.\nThe T2 assay described above was used to determine binding and dissociation rate of heteroclitic peptides engineered for optimal binding to HLA molecules."}, "[5]": {"test_system": "CD8+ T cells of healthy HLA-A2+ donors", "experiment": "Ex vivo generation of peptide-specific CTL from healthy HLA-A2+ donors", "experimental": "From a single blood draw, professional APCs, including DCs and CD40-activated B cells, are generated, and the remaining PBMCs are enriched for CD8+ T cells. T cells are primarily stimulated with peptide-pulsed DC, and repeatedly stimulated with peptide-pulsed CD40-B cells. Peptide-specificity and HLA-restriction is analyzed after a total of 2-5 stimulations, depending on the antigen under study.\nCTL were generated as previously described (Vonderheide et al., Immunity 10:673-679, 1999), CD8^+ T cells (>80% CD8^+, >95% CD3^+, <2.0% CD4^+, and <5% CD56^+) were isolated from PBMC by negative selection using magnetic beads. B cells were activated via CD40, and DC were prepared from peripheral blood monocytes with IL-4 and GM-CSF (Schultze et al., J. Clin. Invest. 100:2757-2765, 1997). DC were harvested after 7 days, pulsed with peptide (40 μg/ml) and β2-microglobulin (3 μg/ml) for 2 hr at 37° C., irradiated (33 Gy), and added to autologous CD8+ T cells at a T:DC ratio of 20:1 in RPMI media supplemented with 10% human AB serum, 2 mM glutamine, 15 μg/ml gentamicin, 20 mMHEPES, and 15 ng/ml IL-7 (Endogen, Woburn, Mass.). At day 7 and weekly thereafter, T cell cultures were harvested and restimulated with irradiated (33 Gy), peptide-pulsed (10 μg/ml) autologous CD40-activated B cells. […]"}, "[6]": {"test_system": "primary follicular lymphoma (FL) cells", "experiment": "51Cr release cytotoxicity assay, primary follicular lymphoma", "assay_type": "cell-based, human", "conditions": "HLA-A2+ CYP1B1+ FL, CTL from healthy donors", "description": "CYP1B1-specific CTLs were then evaluated for cytotoxicity against primary tumor tissue."}, "[7]": {"test_system": "HLA-A2+ ovarian carcinoma cell line 36M", "quoted_text": "To assess cytolytic function CTL lines were used after at least four antigenic stimulations in standard ^51Cr release assays as previously described (Vonderheide et al., Immunity 10:673-679, 1999). […] Monocytes as targets were isolated from PBMC by RosetteSep® (Stem Cell Technologies, Vancouver) following the manufacturer's recommendations."}, "[8]": {"test_system": "T cells from HLA-A2+ healthy donors", "conditions": "for healthy donors with peptide-specific T cells detected / expansion: n=8, day 10"}, "[9]": {"test_system": "T cells from HLA-A2+ multiple myeloma patients", "conditions": "n=10"}, "[10]": {"molecular_target": "T1, HLA-A*0201 on the surface of TAP-deficient T2 cells (human)", "T1 construct": "detected with FITC-labeled mAb BB7.2; also called HLA-A2", "experiment": "T2 cell HLA-A*0201 stabilisation assay, flow cytometry with FITC-BB7.2"}, "[11]": {"molecular_target": "T1, HLA-A*0201 on the surface of …", "experiment": "T2 cell assay of HLA-A*0201/peptide complex stability, flow cytometry"}, "[12]": {"molecular_target": "T1, HLA-A*0201 on the surface of …", "experiment": "TAP-deficient T2 cell assay, flow cytometry"}}, "note": "Peptide text beside a SMILES is read from it."}
{"molecule": "FLDPRPLTV [CYP190]", "values": [{"measurement": "lysis of peptide-pulsed T2 cells by peptide-specific CTL", "setting": "[1]; CTL from healthy donors", "value": "can lyse"}, {"measurement": "lysis of HLA-A2+ primary ALL cells by peptide-specific CTL", "setting": "[2]", "value": "can lyse"}, {"measurement": "generation of peptide-specific CTL from cancer patients", "setting": "[3]", "value": "can be generated from HLA-A2^+ cancer patients"}, {"measurement": "HLA-A2/peptide complex stability", "setting": "[4]", "value": "longest half-life on the cell surface"}, {"measurement": "time after peptide withdrawal at which peptide/A2 complexes can be detected", "setting": "[4]", "value": "≥ 24", "unit": "h"}, {"measurement": "generation of peptide-specific CTL from normal donors", "setting": "[5]", "value": "can be generated from normal HLA-A2^+ donors"}]}
{"molecule": "CSCC[C@H](NC(=O)[C@@H](NC(=O)[C@H](CC(=O)O)NC(=O)[C@@H](NC(=O)[C@H](CC(C)C)NC(=O)[C@@H](N)Cc1ccc(O)cc1)C(C)C)C(C)C)C(=O)N1CCC[C@H]1C(=O)N[C@@H](Cc1c[nH]c2ccccc12)C(=O)N[C@H](C(=O)O)C(C)C", "note": "[CYP239-19] (H-YLVDVMPWV-OH; N-terminus and C-terminus assumed)", "values": [{"measurement": "recognition by CYP239-specific CTL of target cells pulsed with heteroclitic peptide", "setting": "[1]", "value": "equally well"}]}
{"molecule": "CSCC[C@H](NC(=O)[C@@H](NC(=O)[C@H](CC(=O)O)NC(=O)[C@H](Cc1ccc(O)cc1)NC(=O)[C@H](CC(C)C)NC(=O)[C@@H](N)Cc1ccc(O)cc1)C(C)C)C(=O)N1CCC[C@H]1C(=O)N[C@@H](Cc1c[nH]c2ccccc12)C(=O)N[C@H](C(=O)O)C(C)C", "note": "[CYP239-139] (H-YLYDVMPWV-OH; N-terminus and C-terminus assumed)", "values": [{"measurement": "recognition by CYP239-specific CTL of target cells pulsed with heteroclitic peptide", "setting": "[1]", "value": "do not recognize"}]}
{"molecule": "CSCC[C@H](NC(=O)[C@@H](NC(=O)[C@H](CC(=O)O)NC(=O)[C@@H](NC(=O)[C@H](CC(C)C)NC(=O)[C@@H](N)CO)C(C)C)C(C)C)C(=O)N1CCC[C@H]1C(=O)N[C@@H](Cc1c[nH]c2ccccc12)C(=O)N[C@@H](CC(C)C)C(=O)O", "note": "[CYP239] (H-SLVDVMPWL-OH)", "values": [{"measurement": "cytotoxicity for HLA-A2+ FL by peptide-specific CTL", "setting": "[6]", "value": "cytotoxic"}, {"measurement": "cytotoxicity against 36M by peptide-specific CTL", "setting": "[7]", "value": "specific cytotoxicity"}, {"measurement": "healthy donors with peptide-specific T cells detected / expansion", "setting": "[8]", "value": "No expansion"}, {"measurement": "patients with reactive T cells >0.05% on day 10", "setting": "[9]", "value": 4}]}
{"molecule": "CC(C)C[C@H](NC(=O)[C@@H](N)Cc1c[nH]c2ccccc12)C(=O)N[C@@H](CCC(N)=O)C(=O)N[C@@H](Cc1ccc(O)cc1)C(=O)N[C@@H](Cc1ccccc1)C(=O)N1CCC[C@H]1C(=O)N[C@@H](CC(N)=O)C(=O)N1CCC[C@H]1C(=O)N[C@H](C(=O)O)C(C)C", "note": "[CYP246] (H-WLQYFPNPV-OH; N-terminus and C-terminus assumed)", "values": [{"measurement": "cytotoxicity for HLA-A2+ FL by peptide-specific CTL", "setting": "[6]", "value": "cytotoxic"}, {"measurement": "cytotoxicity against 36M by peptide-specific CTL", "setting": "[7]", "value": "specific cytotoxicity"}, {"measurement": "highest level of peptide-specific T cells in one healthy donor", "setting": "[8]; day 10", "value": 0.5, "unit": "%"}, {"measurement": "healthy donors with peptide-specific T cells detected / expansion", "setting": "[8]", "value": 2}, {"measurement": "patients with reactive T cells >0.05% on day 10", "setting": "[9]", "value": 5}]}
{"molecule": "B1", "values": [{"measurement": "Binding affinity [FI] (fluorescence index)", "setting": "[10]", "value": 3.4}]}
{"molecule": "B2", "values": [{"measurement": "T2 assay result at 0 h post-pulsing", "setting": "[11]", "value": 2}, {"measurement": "T2 assay result at 2 h post-pulsing", "setting": "[11]", "value": 1.51}, {"measurement": "T2 assay result at 4 h post-pulsing", "setting": "[11]", "value": 1.24}, {"measurement": "T2 assay result at 6 h post-pulsing", "setting": "[11]", "value": 1.16}, {"measurement": "T2 assay result at 24 h post-pulsing", "setting": "[11]", "value": 0.73}]}
{"molecule": "B3", "values": [{"measurement": "T2 assay result at 0 h post-pulsing", "setting": "[11]", "value": 2.16}, {"measurement": "T2 assay result at 2 h post-pulsing", "setting": "[11]", "value": 1.57}, {"measurement": "T2 assay result at 4 h post-pulsing", "setting": "[11]", "value": 1.31}, {"measurement": "T2 assay result at 6 h post-pulsing", "setting": "[11]", "value": 1.13}, {"measurement": "T2 assay result at 24 h post-pulsing", "setting": "[11]", "value": 0.72}]}
{"molecule": "B4", "values": [{"measurement": "Binding affinity [FI] (fluorescence index)", "setting": "[10]", "value": 3.8}, {"measurement": "T2 assay result at 0 h post-pulsing", "setting": "[11]", "value": 1.91}, {"measurement": "T2 assay result at 2 h post-pulsing", "setting": "[11]", "value": 1.37}, {"measurement": "T2 assay result at 4 h post-pulsing", "setting": "[11]", "value": 0.78}, {"measurement": "T2 assay result at 6 h post-pulsing", "setting": "[11]", "value": 0.58}, {"measurement": "T2 assay result at 24 h post-pulsing", "setting": "[11]", "value": 0.12}]}
{"molecule": "B5", "values": [{"measurement": "binding result", "setting": "[12]", "value": "binds"}]}
